What was measured:
Rbfox RRM (109-208) [1] = target: T1, Rbfox RRM (109-208) (Homo sapiens, UniProt Q9NWB1 109-208); test: NMR
T1 sequence: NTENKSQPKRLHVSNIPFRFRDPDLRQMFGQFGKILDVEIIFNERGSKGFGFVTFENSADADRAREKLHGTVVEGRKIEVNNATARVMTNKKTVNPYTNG

Rbfox1 RRM (109-225) = target: T2, Rbfox1 RRM (109-225) (Homo sapiens, UniProt Q9NWB1 109-225); test: NMR
T2 sequence: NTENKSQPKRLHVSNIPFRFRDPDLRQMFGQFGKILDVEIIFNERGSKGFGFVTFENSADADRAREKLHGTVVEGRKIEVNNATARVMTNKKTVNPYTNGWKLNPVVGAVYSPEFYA

Rbfox RRM (109-208) [2] = target: T1, Rbfox RRM (109-208); test: EMSA

Q: Does GCUCAUAGUGCAGGUAGUUUUGGCAUGACUCUACUGUAGUAUGGGC (structured_RNA) [pre-miR-20b 46-nt (G7-C52)] bind (Rbfox RRM (109-208) [1])?
A: Result: binds

Q: Does GCUCAUAGUGCAGGUAGUUUUGGCAUGACUCUACUGUAGUAUGGGC (structured_RNA, 4-thiouridine at U43 carrying spin label) [pre-miR-20b 46-nt, 4-thio-U43 spin-labeled] bind (Rbfox1 RRM (109-225))?
A: Result: binds

B1: pre-miR-20b full-length (structured_RNA)
RNA: AGUACCAAAGUGCUCAUAGUGCAGGUAGUUUUGGCAUGACUCUACUGUAGUAUGGGCACUUCCAGUACU
Q: With B1 as the binder, how does the Kd (Rbfox RRM (109-208) [2]) read?
A: Its Kd is roughly 50 nM.

From paper PMC4872098
